Results reported in article PMC4387560 (Cell Research, 2015).

Biological target: T1, Scp1-WD40 (residues 567-1085) (S. pombe, UniProt O43043 567-1085)
T1 sequence (looked up): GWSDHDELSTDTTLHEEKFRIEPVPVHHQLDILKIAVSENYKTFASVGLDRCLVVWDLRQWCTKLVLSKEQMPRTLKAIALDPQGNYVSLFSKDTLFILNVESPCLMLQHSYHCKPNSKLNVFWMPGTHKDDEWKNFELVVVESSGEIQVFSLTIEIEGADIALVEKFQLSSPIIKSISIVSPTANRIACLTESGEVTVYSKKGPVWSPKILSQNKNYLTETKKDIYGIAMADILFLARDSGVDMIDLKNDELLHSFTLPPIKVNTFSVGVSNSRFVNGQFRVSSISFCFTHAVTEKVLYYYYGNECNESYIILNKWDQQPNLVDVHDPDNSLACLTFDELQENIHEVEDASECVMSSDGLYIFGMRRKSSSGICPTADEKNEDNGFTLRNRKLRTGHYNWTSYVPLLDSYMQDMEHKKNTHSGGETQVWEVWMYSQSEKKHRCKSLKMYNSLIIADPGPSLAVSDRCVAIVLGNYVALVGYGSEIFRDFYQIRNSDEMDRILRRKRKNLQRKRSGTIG
Experiment: pull-down

binding result: binds
B1: MBP-fused regulatory domain of Sre1 (residues 628-900) (domain or fragment, S. pombe, UniProt Q9UUD1 628-900, looked up)
chain: QHSKSSVHAELRELPECTANLIENSHADDVFSPNMVERLWVLAKCTRDSAQMSDSIISSLSDVLVLSPLEVLASWYAADLLDALLMESLSRKVEISEIEEIISLCPKNSSIIRHALLAKLVLFPENTADSLNEVLAAYKNTLDLCSQDKRKQSSVLKINLSKLFTLHSCLSLALQRLGYGDVSKRMYQEIFVPDSDADITPLSFIISWTALNTFAPICTSPKENDVVEKMAMYVRTAIGTLKIQDLKLSRKLINSCIDIGSRLQEDLGYVSSA
